T1: GST-Dvl2PDZ fusion protein (human, UniProt O14641 248-364)
T1 construct: range 248-364; Made with the pGEX E. coli expression system; also called GST-PDZ fusion protein; not shown: glutathione S-transferase (GST) encoded by plasmid pGEX
T1 sequence (looked up): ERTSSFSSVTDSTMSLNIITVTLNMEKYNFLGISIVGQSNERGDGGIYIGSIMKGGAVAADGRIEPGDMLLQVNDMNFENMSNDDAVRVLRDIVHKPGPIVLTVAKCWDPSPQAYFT

B1: SEQ ID NO 81 (peptide)
peptide: QSHTCYGWIDGGG
B2: SEQ ID NO 82 (peptide)
peptide: VKYYGYIDGGG
B3: SEQ ID NO 83 (peptide)
peptide: WVEYGWIDSGG
B4: SEQ ID NO 84 (peptide)
peptide: FTWRDYGWLDGGG
B5: SEQ ID NO 85 (peptide)
peptide: TLLHFYGYIDGGG
B6: SEQ ID NO 86 (peptide)
peptide: YTKYYGWIDTGG
B7: SEQ ID NO 87 (peptide)
peptide: TWMDYGWLDQGG
B8: SEQ ID NO 88 (peptide)
peptide: GGRMALGWLDGGG
B9: SEQ ID NO 89 (peptide)
peptide: AWIVDYGWIDGGG
B10: SEQ ID NO 90 (peptide)
peptide: TDYGWIDYPP
B11: SEQ ID NO 91 (peptide)
peptide: TRFTNYGWLDGGG
B12: SEQ ID NO 92 (peptide)
peptide: LKFYGWIDGGG
B13: SEQ ID NO 93 (peptide)
peptide: SLQWYGWIDSGG
B14: SEQ ID NO 94 (peptide)
peptide: VSLINYGWIDGGG
B15: SEQ ID NO 95 (peptide)
peptide: WISGWIDYPP
B16: SEQ ID NO 96 (peptide)
peptide: SHWKYYGWIDGGG
B17: SEQ ID NO 97 (peptide)
peptide: ITDYGWVDGPG
B18: SEQ ID NO 98 (peptide)
peptide: MWYVDYGWVDGGG
B19: SEQ ID NO 99 (peptide)
peptide: SIIYYGWLDGGG
B20: SEQ ID NO 100 (peptide)
peptide: AHTTFYGWIDGGG
B21: SEQ ID NO 101 (peptide)
peptide: SHWKYYGWIDGGG
B22: SEQ ID NO 102 (peptide)
peptide: AWIVDYGWIDGGG
B23: SEQ ID NO 103 (peptide)
peptide: YTDYGWIDQSG
B24: SEQ ID NO 104 (peptide)
peptide: YTKYYGWIDTGG
B25: SEQ ID NO 105 (peptide)
peptide: WWVDYGFVDGGG
B26: SEQ ID NO 106 (peptide)
peptide: LKFYGWIDGGG
B27: SEQ ID NO 107 (peptide)
peptide: VSLINYGWIDGGG
B28: SEQ ID NO 108 (peptide)
peptide: IKLVQYGWIDGGG
B29: SEQ ID NO 109 (peptide)
peptide: GFLTHYGWLDGGG
B30: SEQ ID NO 110 (peptide)
peptide: AMFHEYGWIDGGG
B31: SEQ ID NO 111 (peptide)
peptide: IKLVQYGWIDGGG
B32: SEQ ID NO 112 (peptide)
peptide: MVDYGWIDYWG
B33: SEQ ID NO 113 (peptide)
peptide: VKYYGYIDGGG
B34: SEQ ID NO 114 (peptide)
peptide: HITVDYGWIDGGG
B35: SEQ ID NO 115 (peptide)
peptide: LTMYGWIDGKG
B36: SEQ ID NO 116 (peptide)
peptide: VNLVEYGWVDGGG
B37: SEQ ID NO 117 (peptide)
peptide: SWETLWSDFP
B38: SEQ ID NO 118 (peptide)
peptide: NEQLLWTDIP
B39: SEQ ID NO 119 (peptide)
peptide: EVLWSDFPPM
B40: SEQ ID NO 122 (peptide)
peptide: EVLWADFPPM
B41: SEQ ID NO 120 (peptide)
peptide: QQLLWSDIP
B42: SEQ ID NO 121 (peptide)
peptide: SIVLWSDIPS
B43: SEQ ID NO 123 (peptide)
peptide: SIVLWTDIPS
B44: SEQ ID NO 124 (peptide)
peptide: SMVLWWDVPS
B45: SEQ ID NO 125 (peptide)
peptide: TNLLWSDIPP
B46: SEQ ID NO 127 (peptide)
peptide: SIVLWSDIPS
B47: SEQ ID NO 128 (peptide)
peptide: EVLWSDFPPM
B48: SEQ ID NO 129 (peptide)
peptide: EMITLWSDLP
B49: SEQ ID NO 130 (peptide)
peptide: GLVLLWDDFP
B50: SEQ ID NO 131 (peptide)
peptide: LQLLWSDIPG
B51: SEQ ID NO 132 (peptide)
peptide: EMDLLWTDIP
B52: SEQ ID NO 133 (peptide)
peptide: WTNVLWTDIP
B53: SEQ ID NO 134 (peptide)
peptide: ELWIDGPHVM
B54: SEQ ID NO 135 (peptide)
peptide: SIVLWSDIPS
B55: SEQ ID NO 136 (peptide)
peptide: QLVELWSDIP
B56: SEQ ID NO 137 (peptide)
peptide: WVMLWSDLPA
B57: SEQ ID NO 138 (peptide)
peptide: EMITLWSDLP
B58: SEQ ID NO 139 (peptide)
peptide: WVMLWSDLPA
B59: SEQ ID NO 140 (peptide)
peptide: SIVLWSDIPS
B60: SEQ ID NO 141 (peptide)
peptide: EVLWSDFPPM
B61: SEQ ID NO 142 (peptide)
peptide: RRMLWSDIPG
B62: SEQ ID NO 143 (peptide)
peptide: GLVLLWTDIP
B63: SEQ ID NO 144 (peptide)
peptide: EMDLLWTDIP
B64: SEQ ID NO 145 (peptide)
peptide: NLERWSDIPM
B65: SEQ ID NO 146 (peptide)
peptide: SLLTIWSDIP
B66: SEQ ID NO 147 (peptide)
peptide: TWIDGPYLLQ
B67: SEQ ID NO 148 (peptide)
peptide: VWGDSFEGRP
B68: SEQ ID NO 149 (peptide)
peptide: PEVWIDGPEI

The binders below were run against T1, GST-Dvl2PDZ fusion protein (assay: phage display selection on GST-Dvl2PDZ).
Method: The libraries were cycled through rounds of binding selection with a GST-Dvl2PDZ fusion protein coated on 96-well Maxisorp immunoplates as the capture target. Phage were propagated in E. coli XL1-blue with M13-KO7 helper phage and 10 μM IPTG. After four rounds of binding selection, individual phage clones were analyzed in a high-throughput phage ELISA, and positive clones were subjected to DNA sequence analysis.
We used decapeptide libraries fused to the C-terminus or N-terminus of the phage coat protein. The library contained NNK degenerate codons that encoded all 20 natural amino acids. The possible occurrence of amber stop codons in the degenerate codon also provided for the display of shorter peptides for the C-terminal library. Each library was cycled through four rounds of binding selection with immobilized GST-Dvl2PDZ fusion protein as the capture target.
B1: binds. B2: binds. B3: binds. B4: binds. B5: binds. B6: binds. B7: binds. B8: binds. B9: binds. B10: binds. B11: binds. B12: binds. B13: binds. B14: binds. B15: binds. B16: binds. B17: binds. B18: binds. B19: binds. B20: binds. B21: binds. B22: binds. B23: binds. B24: binds. B25: binds. B26: binds. B27: binds. B28: binds. B29: binds. B30: binds. B31: binds. B32: binds. B33: binds. B34: binds. B35: binds. B36: binds. B37: binds. B38: binds. B39: binds. B40: binds. B41: binds. B42: binds. B43: binds. B44: binds. B45: binds. B46: binds. B47: binds. B48: binds. B49: binds. B50: binds. B51: binds. B52: binds. B53: binds. B54: binds. B55: binds. B56: binds. B57: binds. B58: binds. B59: binds. B60: binds. B61: binds. B62: binds. B63: binds. B64: binds. B65: binds. B66: binds. B67: binds. B68: binds.

Reference: US20100136580A1 (Genentech, published 2010)
